US10597674B2, “HPPD variants and methods of use” (BASF Agricultural Solutions Seed, US LLC, priority 2015, dated 2020)
Substitutions are numbered along the chain they refer to. Where two headings read alike, the source gives them in different places.

B1: 14 (protein)
chain: MADLYENPMGLMGFEFIEFASPTPGTLEPIFEIMGFTKVATHRSKNVHLYRQGEINLILNNEPNSIASYFAAEHGPSVCGMAFRVKDSQKAYNRALELGAQPIHIDTGPMELNLPAIKGIGGAPLYLIDRFGEGSSIYDIDFVYLEGVERNPVGAGLKVIDHLTHNVYRGRMVYWANFYEKLFNFREARYFDIKGEYTGLTSKAMSAPDGMIRIPLNEESSKGAGQIEEFLMQFNGEGIQHVAFLTDDLVKTWDALKKIGMRFMTAPPDTYYEMLEGRLPDHGEPVDQLQARGILLDGSSVEGDKRLLLQIFSETLMGPVFFEFIQRKGHDGFGPDSFKVLFESVERDQVRRGVLTAD
modifications: mutant HPPD polypeptide
B2: 29 (protein)
chain: B1 chain with P268S, T270S, H330D, D336H
modifications: mutant HPPD polypeptide
B3: 86 (protein)
chain: B1 chain with P268G, T270E, H330D, V340Q
modifications: mutant HPPD polypeptide
B4: 30 (protein)
chain: B1 chain with P268S, T270S, H330D, D336H, V345K
modifications: mutant HPPD polypeptide
B5: 24 (protein)
chain: B1 chain with H330D, D336H
modifications: mutant HPPD polypeptide
B6: 22 (protein)
chain: B1 chain with H330D, D336H, V345I
modifications: mutant HPPD polypeptide
B7: 59 (protein)
chain: B1 chain with P268G, T270E, H330D, S344R
modifications: mutant HPPD polypeptide
B8: 7 (protein)
chain: B1 chain with H330D, V340A, V345I
modifications: mutant HPPD polypeptide
B9: 21 (protein)
chain: B1 chain with H330D, D336H, V340A, V345I
modifications: mutant HPPD polypeptide
B10: 10 (protein)
chain: B1 chain with H330D
modifications: mutant HPPD polypeptide
B11: 19 (protein)
chain: B1 chain with M264R, P268G, T270E
modifications: mutant HPPD polypeptide

Assays:
[1] = system: E. coli cells expressing an HPPD polypeptide; assay: Brown color bioassay in liquid culture, residual brown color formation (BCF), OD440 after 96 hours; assay type: cell-based; details: for Control BCF OD440nm: brown color formation in absence of Cmpd. 1, culture supernatant after 96 hours, 5 mM HPP; for Residual BCF OD440nm [%]: brown color formation with Cmpd. 1 (1000 μM) relative to without, after 96 hours
Experimental: In an additional experiment, mutant HPPD polypeptides were analyzed using the principle of a colorimetric brown color assay (as, for example, described in U.S. Pat. No. 6,768,044). Bacterial cells expressing the HPPD polypeptides according to this invention were assayed in 96 well plate format (Nunc® 96 DeepWell™ plate, Sigma-Aldrich, St. Louis, USA) for HPPD polypeptides with improved HPPD inhibitor herbicide tolerance.
E. coli cells were grown in liquid LB medium (Carl Roth GmbH+Co. KG, Karlsruhe, Germany) containing the selection agent for the expression vector pSE420(RI)NX (WO2014/043435) and 5 mM para-hydroxyphenylpyruvate (HPP; Sigma-Aldrich, St. Louis, USA), in the presence of absence of the HPPD inhibitor herbicide e.g. Cmpd. 1 (1000 μM). An overnight culture of E. coli culture expressing one of the respective HPPD polypeptides according to this invention were adjusted to an OD600 of 0.3-0.5 in a final volume of 500 μL and incubated at 30 degree Celsius. Residual brown color formation was determined by measuring the brown color formation (BCF) in the presence and absence of Cmpd. […] Therefore, after 96 hours the culture was centrifuged and the supernatant of the culture was used to measure the optical density of the soluble brown pigment formation at 440 nm (OD440 nm).

[2] = system: HPPD polypeptides (wild-type SEQ ID NO:1 and mutants)
Experimental: For the generation of crude HPPD polypeptide extract in micro titer plates (MTP) for the determination of residual activity in inhibition assays, cells were grown in 40 or 150 μl LB medium containing 1% Glucose (Merck, Darmstadt, Germany) and 100 μg/ml ampicillin in a standard 96 well plate (Thermo Fisher Scientific, Waltham, USA) incubated for about 18 h in a humidity incubator at 37° C.
30 μl of this starter culture were added to 600 μl LB medium containing 100 μg/ml ampicillin and 150 mM Hepes (Merck, Darmstadt, Germany) as inoculum for the expression culture in 96 well plates (2 ml deep wells; HJ Bioanalytik, Erkelenz, Germany) The plates were sealed by an aluminium foil, and cells were incubated for 5 h at 37° C. on a plate shaker at 750 rpm. The expression was induced by addition of IPTG in a final concentration of 1 mM followed by further sealed incubation for about 18 h at 30° C. on a plate shaker at 750 rpm.
Cells were harvested by centrifugation at 4° C., 2500 g for 15 min discarding the supernatant. Cell pellets were stored at −80° C. and lysed in 250 μl 1× BugBuster® (Merck, Darmstadt, Germany) in 140 mM Tris (pH 7.8), with 1:25000 diluted BNase® (Qiagen, Hilden, Germany) by incubation of the resuspended cells for 30 min at 4° C. and 1000 rpm. Lysates were clarified by centrifugation for 15 min at 4° C., 2500 g, and 150 μl supernatant were transferred in standard 96 well plate (Thermo Fisher Scientific, Waltham, USA) for subsequent testing in quadruplets.
The activity of HPPD polypeptides was determined in absence or presence of HPPD inhibitors using the coupled HPPD activity assay (FIG. 1).
For the determination of the residual activity, the apparent kinetic constant (kapp) of the determined substrate conversion was measured as kinetic changes in absorbance at 320 nm in a coupled assay, in that homogentisate (HGA) formed by HPPD from HPP is directly converted into the well absorbing molecule maleylacetoacetate (MAA) by a second enzyme homogentisate dioxygenase (HGD), applied in excess uniformly in all assays (see FIG. 1). The measurements were performed in 384 micro titer plates (Greiner Bio-One GmbH, Frickenhausen, Germany) by plate readers (Tecan infinite M1000 or M1000PRO, Tecan, Männedorf, Switzerland). The kcat/kM ratio of an enzymatic activity is proportional to the apparent kinetic constant kapp and is proportional to kcat/kM*[E] ([E]=enzyme concentration). […] As both kapp measurements in the presence and absence of inhibitor were performed by use of the identical enzyme sample, crude or purified, and thereby at the same enzyme concentration, the enzyme concentration eliminates from the calculation of residual activity and the ratio of both kapp directly indicates the change of kM due to the inhibition.

[3] = in the presence of Cmpd. 1, 15 μM inhibitor, high substrate concentration, kapp normalized to kapp without inhibitor
[4] = in the presence of Cmpd. 1, 15 μM inhibitor, high substrate concentration, total change in signal normalized to no inhibitor
[5] = in the presence of Cmpd. 2, 15 μM inhibitor, high substrate concentration, kapp normalized to kapp without inhibitor
[6] = in the presence of Cmpd. 2, 15 μM inhibitor, high substrate concentration, total change in signal normalized to no inhibitor
[7] = in the presence of diketonitrile (DKN), 60 μM inhibitor, high substrate concentration, kapp normalized to kapp without inhibitor
[8] = in the presence of diketonitrile (DKN), 60 μM inhibitor, high substrate concentration, total change in signal normalized to no inhibitor
[9] = in the presence of mesotrione (MST), 60 μM inhibitor, high substrate concentration, kapp normalized to kapp without inhibitor
[10] = in the presence of mesotrione (MST), 60 μM inhibitor, high substrate concentration, total change in signal normalized to no inhibitor
[11] = kapp in presence of 50 μM Cmpd. 1, normalised to kapp without inhibitor, low substrate concentration
[12] = total change in signal in presence of 50 μM Cmpd. 1, normalised to that without inhibitor, low substrate concentration

Molecule | Control BCF OD440nm [1] | Residual BCF OD440nm [%] [1] [%] | Residual activity [2, 3] [%] | Residual turnover [2, 4] [%] | Residual activity [2, 5] [%] | Residual turnover [2, 6] | Residual activity [2, 7] | Residual turnover [2, 8] | Residual activity [2, 9] [%] | Residual turnover [2, 10] | Residual activity [2, 11] [%] | Residual turnover [2, 12] [%]
Cc1nnc(NC(=O)c2ccc(C(F)(F)F)c(S(C)(=O)=O)c2C)o1 [Cmpd. 2, 2-methyl-N-(5-methyl-1,3,4-oxadiazol-2-yl)-3-(methylsulfonyl)-4-(trifluoromethyl)benzamide, reference compound] | 2.68 | 18 | 39 | 50 | 51 | 72% | 86% | 93% | 71 | 85% | – | –
B1 | 1.42 | 63 | 44 | 60 | 82 | 92% | 91% | n.i | 70 | 89% | – | –
B2 | 2.03 | 42 | 33 | 59 | 85 | n.i. | 94% | n.i. | 79 | 95% | – | –
B3 | 1.94 | 74 | – | – | – | – | – | – | – | – | 23 | 45
B4 | 1.70 | 56 | 39 | 65 | 95 | n.i. | n.i. (no inhibition was observed under the given conditions) | n.i. | 87 | n.i. | – | –
B5 | 1.56 | 48 | 28 | 57 | 90 | n.i. | 93% | n.i. | 51 | 68% | – | –
B6 | 1.67 | 58 | 26 | 53 | 90 | n.i. | n.i | n.i. | 77 | 99% | – | –
B7 | 1.29 | 51 | – | – | – | – | – | – | – | – | 19 | 46
B8 | 1.83 | 40 | 27 | 38 | 75 | 83% | 79% | 92% | 70 | 85% | – | –
B9 | 0.99 | 65 | 18 | 30 | 73 | 84% | 81% | n.i | 62 | 89% | – | –
B10 | 1.09 | 65 | 41 | 66 | 89 | n.i. | n.i. (no inhibition was observed under the given conditions) | n.i. | 82 | n.i. | – | –
B11 | 1.65 | 60 | 68 | 79 | 92 | 93% | n.i. (no inhibition was observed under the given conditions) | n.i | 51 | 78% | 67 | 88
